Biological target: HA-tagged human Junctophilin-2 with seven point mutations in the Joining region (Ad-mut^PG1JPH2) (human) (UniProt Q9BR39)
Assay: co-IP + proximity ligation

percent reduction of the interaction against WT-JPH2: 30 to 40%
Substance: L-type Ca2+ channel pore-forming subunit α1C (natural protein)

Source: publication PMC7790862
